T1: FcγRIIb extracellular domain with C-terminal His tag (human, UniProt P31994 43-217)
T1 construct: extracellular domain; soluble analyte in Biacore; also called FcgRIIb; not shown: His tag at the C terminus
T1 sequence (looked up): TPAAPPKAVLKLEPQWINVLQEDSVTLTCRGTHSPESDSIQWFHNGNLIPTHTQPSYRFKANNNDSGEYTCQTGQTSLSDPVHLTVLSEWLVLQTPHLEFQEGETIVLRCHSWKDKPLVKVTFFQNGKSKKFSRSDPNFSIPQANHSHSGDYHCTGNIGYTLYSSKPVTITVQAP

T2: FcγRIIa H (human, UniProt P12318 34-217)
T2 construct: extracellular domain; also called FcgRIIa H; 2aH; not shown: His tag attached to the C terminus
T2 sequence (looked up): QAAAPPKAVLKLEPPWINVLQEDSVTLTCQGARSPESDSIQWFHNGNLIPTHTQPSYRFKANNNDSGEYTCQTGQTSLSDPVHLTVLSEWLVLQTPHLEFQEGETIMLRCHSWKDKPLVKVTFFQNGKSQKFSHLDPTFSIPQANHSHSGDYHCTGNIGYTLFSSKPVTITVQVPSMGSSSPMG

T3: FcγRIIb (human, UniProt P31994 43-217)
T3 construct: extracellular domain; also called FcgRIIb; 2b; not shown: His tag attached to the C terminus
T3 sequence (looked up): T1 sequence (looked up)

B1: GpH7-A5/GpH7-B3 variant E269_20W/GpL16-k0 (antibody, human IgG1, kappa)
heavy 1: not shown
heavy 2: not shown
light: DIVMTQSPLSLPVTPGEPASISCQASESLVHSNRNTYLHWYLQKPGQSPQLLIYKVSNRFSGVPDRFSGSGSGTDFTLKISRVEAEDVGVYYCSQNTHVPPTFGQGTKVEIERTVAAPSVFIFPPSDEQLKSGTASVVCLLNNFYPREAKVQWKVDNALQSGNSQESVTEQDSKDSTYSLSSTLTLSKADYEKHKVYACEVTHQGLSSPVTKSFNRGEC
notes: change in the GpH7-B3 H chain only; also called He Ab
B2: GpH7-A5/GpH7-B3 variant D265_02A/GpL16-k0 (antibody, human IgG1, kappa)
heavy 1: not shown
heavy 2: not shown
light: B1 light
notes: Heterodimerized anti-glypican-3 IgG1; mutation in one H chain only; also called He Ab
B3: GpH7-A5/GpH7-B3 variant D265_20W/GpL16-k0 (antibody, human IgG1, kappa)
heavy 1: not shown
heavy 2: not shown
light: B1 light
notes: as for B2
B4: GpH7-A5/GpH7-B3 variant D265_14T/GpL16-k0 (antibody, human IgG1, kappa)
heavy 1: not shown
heavy 2: not shown
light: B1 light
notes: as for B2
B5: GpH7-A5/GpH7-B3 variant V266_05P/GpL16-k0 (antibody, human IgG1, kappa)
heavy 1: not shown
heavy 2: not shown
light: B1 light
notes: as for B2
B6: GpH7-A5/GpH7-B3 variant D265_06M/GpL16-k0 (antibody, human IgG1, kappa)
heavy 1: not shown
heavy 2: not shown
light: B1 light
notes: as for B2
B7: GpH7-A5/GpH7-B3 variant P271_16H/GpL16-k0 (antibody, human IgG1, kappa)
heavy 1: not shown
heavy 2: not shown
light: B1 light
notes: as for B1
B8: GpH7-A5/GpH7-B3 variant D265_15Y/GpL16-k0 (antibody, human IgG1, kappa)
heavy 1: not shown
heavy 2: not shown
light: B1 light
notes: as for B2
B9: GpH7-A5/GpH7-B3 variant D265_03V/GpL16-k0 (antibody, human IgG1, kappa)
heavy 1: not shown
heavy 2: not shown
light: B1 light
notes: as for B2
B10: GpH7-A5/GpH7-B3 variant G236_20W/GpL16-k0 (antibody, human IgG1, kappa)
heavy 1: not shown
heavy 2: not shown
light: B1 light
notes: Heterodimerized anti-glypican-3 IgG1; mutation in one H chain only; also called He Ab; GpH7-A5/GpH7-B3-03-20W/GpL16-k0
B11: GpH7-A5/GpH7-B3 variant G236_19Q/GpL16-k0 (antibody, human IgG1, kappa)
heavy 1: not shown
heavy 2: not shown
light: B1 light
notes: as for B2
B12: GpH7-A5/GpH7-B3 variant D265_19Q/GpL16-k0 (antibody, human IgG1, kappa)
heavy 1: not shown
heavy 2: not shown
light: B1 light
notes: as for B2
B13: GpH7-A5/GpH7-B3 variant E269_01G/GpL16-k0 (antibody, human IgG1, kappa)
heavy 1: not shown
heavy 2: not shown
light: B1 light
notes: as for B2
B14: GpH7-A5/GpH7-B3 variant S239_11K/GpL16-k0 (antibody, human IgG1, kappa)
heavy 1: not shown
heavy 2: not shown
light: B1 light
notes: as for B2
B15: GpH7-A5/GpH7-B3 variant D265_16H/GpL16-k0 (antibody, human IgG1, kappa)
heavy 1: not shown
heavy 2: not shown
light: B1 light
notes: as for B2
B16: GpH7-A5/GpH7-B3 variant P271_03V/GpL16-k0 (antibody, human IgG1, kappa)
heavy 1: not shown
heavy 2: not shown
light: B1 light
notes: as for B1

Key:
[1] = biological target: T1, FcγRIIb extracellular domain with …; assay: SPR, binding relative to GpH7-A5/GpH7-B3/GpL16-k0 = 100
[2] = biological target: T4, FcγRIa extracellular domain with C-terminal His tag (human, UniProt P12314 16-292); assay: as above
T4 construct: extracellular domain; soluble analyte in Biacore; also called FcgRI; not shown: His tag at the C terminus

[3] = biological target: T4, FcγRIa extracellular domain with …; assay: SPR; He/Con_1a divided by He/Con_2b (FcγRIa against FcγRIIb)
Procedure: (§1) The heterodimerized antibodies He Abs in which one of the H chains was introduced with an alteration were assayed for their binding activities to each activating FcγR and inhibitory FcγR according to the method described in Example 4. […] The activating FcγRs in FIGS. 26, 27, 28, and 29 are FcγRIa, FcγRIIa (R), FcγRIIa (H), and FcγRIIIa, respectively.
(§2) Analysis of interaction between objective antibody and the FcγR was carried out using Biacore T100 (GE Healthcare). HBS-EP+ (GE Healthcare) was used as the running buffer, and the measurement temperature was set to 25° C. Chips produced by immobilizing the antigen peptide by the amine coupling method to a Series S Sencor Chip CM5 (GE Healthcare), or alternatively, chips produced by allowing preliminarily biotinylated antigen peptides to interact with and immobilize onto a Series S Sensor Chip SA (certified) (GE Healthcare) were used. Antibodies of interest were captured onto an antigen peptide-immobilized chip, and allowed to interact to each FcγR diluted with running buffer. To regenerate and repeatedly use the chip, the antibodies captured on the chip were washed off by reacting 10 mM glycine-HCl, pH 1.5.

FcγRIIa H [4] = biological target: T2, FcγRIIa H; assay: SPR (Biacore), antibody captured on antigen peptide chip, FcγR as analyte; relative binding activity
Procedure: as §1, §2

FcγRIIb = biological target: T3, FcγRIIb; assay: as above
Procedure: as §1, §2

FcγRIIa H [5] = biological target: T2, FcγRIIa H; assay: SPR; He/Con for FcγRIIa H divided by He/Con for FcγRIIb

T4 sequence (P12314 16-292): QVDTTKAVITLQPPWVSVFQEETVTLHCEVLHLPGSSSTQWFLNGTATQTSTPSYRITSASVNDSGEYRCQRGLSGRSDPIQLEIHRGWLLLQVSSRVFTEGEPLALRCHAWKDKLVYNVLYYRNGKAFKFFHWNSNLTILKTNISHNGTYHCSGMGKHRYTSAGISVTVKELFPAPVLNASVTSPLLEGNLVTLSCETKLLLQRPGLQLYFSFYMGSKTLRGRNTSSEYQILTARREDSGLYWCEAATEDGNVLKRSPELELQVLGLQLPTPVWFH

| Binder | He/Con_2b [1] | He/Con_1a [2] | He_1a/2b (Ia/IIb) [3] [ratio] | He/Con_2aH (FcγRIIa H [4]) | He/Con_2b (FcγRIIb) | He_2aH/2b (IIaH/IIb) (FcγRIIa H [5]) [ratio] |
| --- | --- | --- | --- | --- | --- | --- |
| B1 | 42.5 % of control | 105 % of control | 2.47 |  |  |  |
| B2 |  |  |  | 31.3 % of GpH7-A5/GpH7-B3/GpL16-k0 (=100) | 19.9 % of GpH7-A5/GpH7-B3/GpL16-k0 (=100) | 1.58 |
| B3 |  |  |  | 3.2 % of GpH7-A5/GpH7-B3/GpL16-k0 (=100) | 1.1 % of GpH7-A5/GpH7-B3/GpL16-k0 (=100) | 2.86 |
| B4 |  |  |  | 24.1 % of GpH7-A5/GpH7-B3/GpL16-k0 (=100) | 16 % of GpH7-A5/GpH7-B3/GpL16-k0 (=100) | 1.5 |
| B5 |  |  |  | 0.7 % of GpH7-A5/GpH7-B3/GpL16-k0 (=100) | 0.4 % of GpH7-A5/GpH7-B3/GpL16-k0 (=100) | 1.91 |
| B6 |  |  |  | 13.5 % of GpH7-A5/GpH7-B3/GpL16-k0 (=100) | 10 % of GpH7-A5/GpH7-B3/GpL16-k0 (=100) | 1.35 |
| B7 | 67.9 % of control | 102 % of control | 1.5 |  |  |  |
| B8 |  |  |  | 3.7 % of GpH7-A5/GpH7-B3/GpL16-k0 (=100) | 0.6 % of GpH7-A5/GpH7-B3/GpL16-k0 (=100) | 6.07 |
| B9 |  |  |  | 4.6 % of GpH7-A5/GpH7-B3/GpL16-k0 (=100) | 3.2 % of GpH7-A5/GpH7-B3/GpL16-k0 (=100) | 1.42 |
| B10 |  |  |  | 147 % of GpH7-A5/GpH7-B3/GpL16-k0 (=100) | 58.2 % of GpH7-A5/GpH7-B3/GpL16-k0 (=100) | 2.52 |
| B11 |  |  |  | 89.1 % of GpH7-A5/GpH7-B3/GpL16-k0 (=100) | 46.6 % of GpH7-A5/GpH7-B3/GpL16-k0 (=100) | 1.91 |
| B12 |  |  |  | 47.7 % of GpH7-A5/GpH7-B3/GpL16-k0 (=100) | 33.4 % of GpH7-A5/GpH7-B3/GpL16-k0 (=100) | 1.43 |
| B13 |  |  |  | 71.5 % of GpH7-A5/GpH7-B3/GpL16-k0 (=100) | 51.5 % of GpH7-A5/GpH7-B3/GpL16-k0 (=100) | 1.39 |
| B14 |  |  |  | 48.1 % of GpH7-A5/GpH7-B3/GpL16-k0 (=100) | 24.7 % of GpH7-A5/GpH7-B3/GpL16-k0 (=100) | 1.94 |
| B15 |  |  |  | 48.6 % of GpH7-A5/GpH7-B3/GpL16-k0 (=100) | 38.3 % of GpH7-A5/GpH7-B3/GpL16-k0 (=100) | 1.27 |
| B16 | 74.8 % of control | 102 % of control | 1.37 |  |  |  |

Source: US20150344570A1 (published 2015)
